Experimental data reported in paper PMC4034487, “Immobilization of a Pleurotus ostreatus Laccase Mixture on Perlite and Its Application to Dye Decolourisation” (BioMed Research International, 2014).

Substrate: CCn1c(=NN=c2sc3cc(S(=O)(=O)O)ccc3n2CC)sc2cc(S(=O)(=O)O)ccc21
Assay: purified protein
Assay type: biochemical, Pleurotus ostreatus
Details: free soluble enzyme, 0.1 M sodium citrate pH 3.0, 25°C (general assay)

B1: POXC (Pleurotus ostreatus) (protein)
chain: AIGPAGNMYIVNEDVSPDGFARSAVVARSVPATDPTPATASIPGVLVQGNKGDNFQLNVVNQLSDTTMLKTTSIHWHGFFQAGSSWADGPAFVTQCPVASGDSFLYNFNVPDQAGTFWYHSHLSTQYCDGLRGPFVVYDPSDPHLSLYDIDNADTVITLEDWYHIVAPQNAAIPTPDSTLINGKGRYAGGPTSPLAIINVESNKRYRFRLVSMSCDPNFTFSIDGHSLLVIEADAVNIVPITVDSIQIFAGQRYSFVLTANQAVDNYWIRANPNLGSTGFVGGINSAILRYAGATEDDPTTTSSTSTPLLETNLVPLENPGAPGPPVPGGADININLAMAFDFTTFELTINGVPFLPPTAPVLLQILSGASTAASLLPSGSIYELEANKVVEISMPALAVGGPHPFHLHGHTFDVIRSAGSTTYNFDTPARRDVVNTGTGANDNVTIRFVTDNPGPWFLHCHIDWHLEIGLAVVFAEDVTSISAPPAAWDDLCPIYNALSDNDKGGIVPS
notes: native purified laccase isoenzyme from P. ostreatus; soluble form
Km: 0.03 mM | kcat: 620000 min⁻¹
